Target: GFP [GFP: P42212]
Experiment: sandwich cD-IPCR: GFP in buffer captured by anti-GFP pAb on plate, bound cDNA display quantified by qPCR (ΔCt)

Chain of cDNA display presenting anti-GFP VHH (LaG-16) (VHH): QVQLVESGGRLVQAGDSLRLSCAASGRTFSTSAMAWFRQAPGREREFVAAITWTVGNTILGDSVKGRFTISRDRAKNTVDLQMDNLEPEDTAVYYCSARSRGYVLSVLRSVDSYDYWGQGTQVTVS

lowest detected GFP concentration (sandwich cD-IPCR): 10 ng/mL
Substance: cDNA display presenting anti-GFP VHH (LaG-16)

Source: patent US20210381026A1
